Broadly, the stoichiometry N is the number of molecules, sites or subunits per partner or assembly.

The target in assay [1] is IgM of the IgM/IgA-enriched immunoglobulin Pentaglobin. In words: non-reducing SDS-PAGE with Western blot; Pentaglobin separated by non-reducing SDS-PAGE, transferred to nitrocellulose; J-chain, IgA and IgM detected with specific antibodies and fluorophore labeled secondary antibodies. For orientation: Immunoblotting shows a protein as a band on a membrane.
The target in assay [2] is IgA of the IgM/IgA-enriched immunoglobulin Pentaglobin. Described as above.

IgM of the IgM/IgA-enriched immunoglobulin Pentaglobin, sequence (P01871 whole entry): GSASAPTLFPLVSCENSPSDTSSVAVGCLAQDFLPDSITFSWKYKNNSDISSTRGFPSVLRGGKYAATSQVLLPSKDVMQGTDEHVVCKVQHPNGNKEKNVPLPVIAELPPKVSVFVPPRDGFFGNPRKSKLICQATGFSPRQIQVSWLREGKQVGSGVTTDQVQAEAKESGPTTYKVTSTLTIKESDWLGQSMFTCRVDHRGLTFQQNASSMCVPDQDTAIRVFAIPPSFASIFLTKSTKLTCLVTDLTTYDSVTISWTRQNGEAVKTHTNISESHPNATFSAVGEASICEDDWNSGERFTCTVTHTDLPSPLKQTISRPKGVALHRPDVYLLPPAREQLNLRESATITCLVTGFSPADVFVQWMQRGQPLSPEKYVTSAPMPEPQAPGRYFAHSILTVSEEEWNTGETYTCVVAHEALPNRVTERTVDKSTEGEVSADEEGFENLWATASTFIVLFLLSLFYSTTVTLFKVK
IgA of the IgM/IgA-enriched immunoglobulin Pentaglobin, sequence (P01876 whole entry): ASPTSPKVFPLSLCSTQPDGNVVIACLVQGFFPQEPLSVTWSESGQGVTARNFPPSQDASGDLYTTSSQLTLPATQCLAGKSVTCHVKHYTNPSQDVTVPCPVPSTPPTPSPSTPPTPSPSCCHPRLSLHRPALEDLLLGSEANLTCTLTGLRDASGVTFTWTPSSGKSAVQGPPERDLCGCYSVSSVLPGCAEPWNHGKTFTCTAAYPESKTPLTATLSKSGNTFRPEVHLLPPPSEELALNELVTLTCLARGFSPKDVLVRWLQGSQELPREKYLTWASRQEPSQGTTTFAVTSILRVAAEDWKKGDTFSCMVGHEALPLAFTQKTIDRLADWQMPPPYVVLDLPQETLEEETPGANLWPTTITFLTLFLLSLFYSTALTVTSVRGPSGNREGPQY

In assay [1], “IgM of the IgM/IgA-enriched immunoglobulin Pentaglobin (natural protein)” returned a stoichiometry N of 5.

Take “IgA of the IgM/IgA-enriched immunoglobulin Pentaglobin (natural protein)”: in assay [2], the stoichiometry N is 2.

Source of the values: PMC8948467.
